These results are taken from US20160115500A1 (University of California, published 2016).

In assay [1] the target is T1, GAL4 activation domain fusion (ACT) to HAB1 (UniProt Q9CAJ0 23-511, limits assumed).
T1 construct: pACT-HAB1 fusion in yeast reporter strains; also called pACT-HAB1
T1 sequence (looked up): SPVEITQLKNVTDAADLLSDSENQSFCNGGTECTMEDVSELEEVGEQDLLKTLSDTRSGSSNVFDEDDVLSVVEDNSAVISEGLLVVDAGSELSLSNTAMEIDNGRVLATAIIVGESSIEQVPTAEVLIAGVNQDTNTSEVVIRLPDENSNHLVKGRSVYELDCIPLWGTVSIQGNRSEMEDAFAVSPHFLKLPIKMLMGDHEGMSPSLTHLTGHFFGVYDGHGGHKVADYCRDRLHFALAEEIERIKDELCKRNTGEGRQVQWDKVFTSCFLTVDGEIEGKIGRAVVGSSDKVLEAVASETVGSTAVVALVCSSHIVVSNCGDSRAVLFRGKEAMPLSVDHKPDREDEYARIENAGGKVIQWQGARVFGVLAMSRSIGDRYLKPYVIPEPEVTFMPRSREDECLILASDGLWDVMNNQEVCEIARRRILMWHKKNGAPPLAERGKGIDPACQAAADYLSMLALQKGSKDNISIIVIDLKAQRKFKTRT
Briefly: yeast two-hybrid, X-gal; lowest benzothiadiazole concentration giving signal.

In assay [2] the target is T1, GAL4 activation domain fusion (ACT) to …. Briefly: yeast two-hybrid, X-gal; lowest mandipropamid concentration giving signal.
For assay [3] the target is unchanged. Briefly: yeast two-hybrid, X-gal; lowest dichlobenil concentration giving signal.
Assay [4] has the same target. Nature of the assay: yeast two-hybrid, X-gal; lowest fludioxonil concentration giving signal.

B1: PYR1^K59R,E141K (receptor, not shown: small tags and cut ends)
chain: MPSELTPEERSELKNSIAEFHTYQLDPGSCSSLHAQRIHAPPELVWSIVRRFDKPQTYRHFIKSCSVEQNFEMRVGCTRDVIVISGLPANTSTERLDILDDERRVTGFSIIGGEHRLTNYKSVTTVHRFEKENRIWTVVLKSYVVDMPEGNSEDDTRMFADTVVKLNLQKLATVAEAMARNSGDGSGSQVT
notes: pBD-PYR1 fusion in yeast
In assay [1], B1 yielded a Threshold of 100 µM.

B2: PYR1^K59R,E141Y,A160G (receptor)
chain: MPSELTPEERSELKNSIAEFHTYQLDPGSCSSLHAQRIHAPPELVWSIVRRFDKPQTYRHFIKSCSVEQNFEMRVGCTRDVIVISGLPANTSTERLDILDDERRVTGFSIIGGEHRLTNYKSVTTVHRFEKENRIWTVVLYSYVVDMPEGNSEDDTRMFGDTVVKLNLQKLATVAEAMARNSGDGSGSQVT
notes: pBD-PYR1 fusion in yeast
Regarding B2, the Threshold in assay [1] came out at 5 µM.

B3: PYR1^K59R,F159I (receptor, not shown: small tags and cut ends)
chain: MPSELTPEERSELKNSIAEFHTYQLDPGSCSSLHAQRIHAPPELVWSIVRRFDKPQTYRHFIKSCSVEQNFEMRVGCTRDVIVISGLPANTSTERLDILDDERRVTGFSIIGGEHRLTNYKSVTTVHRFEKENRIWTVVLESYVVDMPEGNSEDDTRMIADTVVKLNLQKLATVAEAMARNSGDGSGSQVT
notes: pBD-PYR1 fusion in yeast; also called K59R F1591
In the case of B3, the Threshold in assay [2], in assay [1] and in assay [3] was 100 µM throughout.

B4: PYR1^K59R,E141Y (receptor)
chain: MPSELTPEERSELKNSIAEFHTYQLDPGSCSSLHAQRIHAPPELVWSIVRRFDKPQTYRHFIKSCSVEQNFEMRVGCTRDVIVISGLPANTSTERLDILDDERRVTGFSIIGGEHRLTNYKSVTTVHRFEKENRIWTVVLYSYVVDMPEGNSEDDTRMFADTVVKLNLQKLATVAEAMARNSGDGSGSQVT
notes: pBD-PYR1 fusion in yeast
Turning to B4, the Threshold in assay [1], in assay [3] and in assay [4] was 100 µM throughout.

B5: PYR1^K59R,F159A (receptor, not shown: small tags and cut ends)
chain: MPSELTPEERSELKNSIAEFHTYQLDPGSCSSLHAQRIHAPPELVWSIVRRFDKPQTYRHFIKSCSVEQNFEMRVGCTRDVIVISGLPANTSTERLDILDDERRVTGFSIIGGEHRLTNYKSVTTVHRFEKENRIWTVVLESYVVDMPEGNSEDDTRMAADTVVKLNLQKLATVAEAMARNSGDGSGSQVT
notes: pBD-PYR1 fusion in yeast
In the case of B5, the Threshold in assay [2], in assay [1] and in assay [4] was 100 µM each time.

B6: PYR1^K59R,M158I (receptor, not shown: small tags and cut ends)
chain: MPSELTPEERSELKNSIAEFHTYQLDPGSCSSLHAQRIHAPPELVWSIVRRFDKPQTYRHFIKSCSVEQNFEMRVGCTRDVIVISGLPANTSTERLDILDDERRVTGFSIIGGEHRLTNYKSVTTVHRFEKENRIWTVVLESYVVDMPEGNSEDDTRIFADTVVKLNLQKLATVAEAMARNSGDGSGSQVT
notes: pBD-PYR1 fusion in yeast
As for B6, the Threshold in assay [1], in assay [3] and in assay [4] was 100 µM throughout.

B7: PYR1^K59R,L117C (receptor, not shown: small tags and cut ends)
chain: MPSELTPEERSELKNSIAEFHTYQLDPGSCSSLHAQRIHAPPELVWSIVRRFDKPQTYRHFIKSCSVEQNFEMRVGCTRDVIVISGLPANTSTERLDILDDERRVTGFSIIGGEHRCTNYKSVTTVHRFEKENRIWTVVLESYVVDMPEGNSEDDTRMFADTVVKLNLQKLATVAEAMARNSGDGSGSQVT
notes: pBD-PYR1 fusion in yeast
B7 yielded a Threshold in assay [1] of 100 µM.

B8: PYR1^K59R,T162K (receptor, not shown: small tags and cut ends)
chain: MPSELTPEERSELKNSIAEFHTYQLDPGSCSSLHAQRIHAPPELVWSIVRRFDKPQTYRHFIKSCSVEQNFEMRVGCTRDVIVISGLPANTSTERLDILDDERRVTGFSIIGGEHRLTNYKSVTTVHRFEKENRIWTVVLESYVVDMPEGNSEDDTRMFADKVVKLNLQKLATVAEAMARNSGDGSGSQVT
notes: pBD-PYR1 fusion in yeast
Consider B8, for which the Threshold in assay [1] and in assay [3] was 100 µM in each case.

B9: PYR1^K59R,F159T (receptor, not shown: small tags and cut ends)
chain: MPSELTPEERSELKNSIAEFHTYQLDPGSCSSLHAQRIHAPPELVWSIVRRFDKPQTYRHFIKSCSVEQNFEMRVGCTRDVIVISGLPANTSTERLDILDDERRVTGFSIIGGEHRLTNYKSVTTVHRFEKENRIWTVVLESYVVDMPEGNSEDDTRMTADTVVKLNLQKLATVAEAMARNSGDGSGSQVT
notes: pBD-PYR1 fusion in yeast
Regarding B9, the Threshold in assay [2], in assay [1] and in assay [4] was 100 µM in each case.

B10: PYR1^K59R,F159L (receptor, not shown: small tags and cut ends)
chain: MPSELTPEERSELKNSIAEFHTYQLDPGSCSSLHAQRIHAPPELVWSIVRRFDKPQTYRHFIKSCSVEQNFEMRVGCTRDVIVISGLPANTSTERLDILDDERRVTGFSIIGGEHRLTNYKSVTTVHRFEKENRIWTVVLESYVVDMPEGNSEDDTRMLADTVVKLNLQKLATVAEAMARNSGDGSGSQVT
notes: pBD-PYR1 fusion in yeast
On to B10, for which the Threshold in assay [2], in assay [1] and in assay [3] was 100 µM throughout.

B11: PYR1^K59R,V81I (receptor, not shown: small tags and cut ends)
chain: MPSELTPEERSELKNSIAEFHTYQLDPGSCSSLHAQRIHAPPELVWSIVRRFDKPQTYRHFIKSCSVEQNFEMRVGCTRDIIVISGLPANTSTERLDILDDERRVTGFSIIGGEHRLTNYKSVTTVHRFEKENRIWTVVLESYVVDMPEGNSEDDTRMFADTVVKLNLQKLATVAEAMARNSGDGSGSQVT
notes: pBD-PYR1 fusion in yeast
B11: the Threshold in assay [1] and in assay [4] was 100 µM each time.

B12: PYR1^K59R,V164K (receptor, not shown: small tags and cut ends)
chain: MPSELTPEERSELKNSIAEFHTYQLDPGSCSSLHAQRIHAPPELVWSIVRRFDKPQTYRHFIKSCSVEQNFEMRVGCTRDVIVISGLPANTSTERLDILDDERRVTGFSIIGGEHRLTNYKSVTTVHRFEKENRIWTVVLESYVVDMPEGNSEDDTRMFADTVKKLNLQKLATVAEAMARNSGDGSGSQVT
notes: pBD-PYR1 fusion in yeast
Take B12: the Threshold in assay [1], in assay [3] and in assay [4] was 100 µM throughout.

B13: PYR1^K59R,T162Y (receptor, not shown: small tags and cut ends)
chain: MPSELTPEERSELKNSIAEFHTYQLDPGSCSSLHAQRIHAPPELVWSIVRRFDKPQTYRHFIKSCSVEQNFEMRVGCTRDVIVISGLPANTSTERLDILDDERRVTGFSIIGGEHRLTNYKSVTTVHRFEKENRIWTVVLESYVVDMPEGNSEDDTRMFADYVVKLNLQKLATVAEAMARNSGDGSGSQVT
notes: pBD-PYR1 fusion in yeast
Take B13: the Threshold in assay [1] and in assay [3] was 100 µM each time.

B14: PYR1^K59R,F159C (receptor, not shown: small tags and cut ends)
chain: MPSELTPEERSELKNSIAEFHTYQLDPGSCSSLHAQRIHAPPELVWSIVRRFDKPQTYRHFIKSCSVEQNFEMRVGCTRDVIVISGLPANTSTERLDILDDERRVTGFSIIGGEHRLTNYKSVTTVHRFEKENRIWTVVLESYVVDMPEGNSEDDTRMCADTVVKLNLQKLATVAEAMARNSGDGSGSQVT
notes: pBD-PYR1 fusion in yeast
Turning to B14, the Threshold in assay [2] and in assay [1] was 100 µM each time.

B15: PYR1^K59R,F159M (receptor, not shown: small tags and cut ends)
chain: MPSELTPEERSELKNSIAEFHTYQLDPGSCSSLHAQRIHAPPELVWSIVRRFDKPQTYRHFIKSCSVEQNFEMRVGCTRDVIVISGLPANTSTERLDILDDERRVTGFSIIGGEHRLTNYKSVTTVHRFEKENRIWTVVLESYVVDMPEGNSEDDTRMMADTVVKLNLQKLATVAEAMARNSGDGSGSQVT
notes: pBD-PYR1 fusion in yeast
B15: the Threshold in assay [2] and in assay [1] was 100 µM in each case.

B16: PYR1^K59R,V164Y (receptor, not shown: small tags and cut ends)
chain: MPSELTPEERSELKNSIAEFHTYQLDPGSCSSLHAQRIHAPPELVWSIVRRFDKPQTYRHFIKSCSVEQNFEMRVGCTRDVIVISGLPANTSTERLDILDDERRVTGFSIIGGEHRLTNYKSVTTVHRFEKENRIWTVVLESYVVDMPEGNSEDDTRMFADTVYKLNLQKLATVAEAMARNSGDGSGSQVT
notes: pBD-PYR1 fusion in yeast
On to B16, for which the Threshold in assay [1] and in assay [3] was 100 µM in each case.

B17: PYR1^K59R,L117C,V164K (receptor)
chain: MPSELTPEERSELKNSIAEFHTYQLDPGSCSSLHAQRIHAPPELVWSIVRRFDKPQTYRHFIKSCSVEQNFEMRVGCTRDVIVISGLPANTSTERLDILDDERRVTGFSIIGGEHRCTNYKSVTTVHRFEKENRIWTVVLESYVVDMPEGNSEDDTRMFADTVKKLNLQKLATVAEAMARNSGDGSGSQVT
notes: pBD-PYR1 fusion in yeast
In the case of B17, the Threshold in assay [1] was found to be 100 µM.

B18: PYR1^K59R,V83L (receptor, not shown: small tags and cut ends)
chain: MPSELTPEERSELKNSIAEFHTYQLDPGSCSSLHAQRIHAPPELVWSIVRRFDKPQTYRHFIKSCSVEQNFEMRVGCTRDVILISGLPANTSTERLDILDDERRVTGFSIIGGEHRLTNYKSVTTVHRFEKENRIWTVVLESYVVDMPEGNSEDDTRMFADTVVKLNLQKLATVAEAMARNSGDGSGSQVT
notes: pBD-PYR1 fusion in yeast
In the case of B18, the Threshold in assay [1], in assay [3] and in assay [4] was 100 µM in each case.
